Reference: US11879134

How the values were obtained:
[1] = system: Type I-B Cas complex (Clo1313_2969-2976; Cas3, Cas5, Cas8, Cas6, DevR) (Clostridium thermocellum); assay: cell_activity
[2] = system: ThermoCas9; assay: cell_activity; settings: PAM NNNNCNAA; no cell killing observed

AUAAUGACAUUUAUGGUACUGUUGUGGUAAUAGACGA / CAGTTAATAATGACATTTATGGTACTGTTGTGGTAATAGACGA / TCGTCTATTACCACAACAGTACCATAAATGTCATTATTAACTG
activity ([1]; PAM 5'-CAGTTA, plasmid interference, strong spacer promoter, spacer sequence from Table 1 pTY series, scale: fold decrease in transformation efficiency): 10

CUUGAAGGCAUGAGGGUGUUUUAUGAAACUUGCAAAU / CTTGAAGGCATGAGGGTGTTTTATGAAACTTGCAAAT / ATTTGCAAGTTTCATAAAACACCCTCATGCCTTCAAG
activity ([1]; no-PAM (GGC) control, target spacer gives 7 CFU/ug): 18000 CFU/µg DNA

GCAUAUUUGUUCUGGUCAAG / GCATATTTGTTCTGGTCAAG / CTTGACCAGAACAAATATGC [ThermoCas9 sgRNA#1 spacer ; pyrF site, ThermoCas9 #1]
activity (% cell killing) [2]: 0

UGAGAUUGUUGCGGAGUAUGUUGAAUCAUGGGGUGAA / TGAGATTGTTGCGGAGTATGTTGAATCATGGGGTGAA / TTCACCCCATGATTCAACATACTCCGCAACAATCTCA [Type I-B pyrF target spacer ; pyrF site, Type I-B, PAM TTA]
activity (% cell killing) ([1]; PAM 5'-TTA, strain LL1586, chromosomal pyrF, 65.8% with native cas promoter): 99.8
